Test results as given in paper PMC4300268.

Molecular target: Plu4264 from Photorhabdus luminescens subsp. laumondii TTO1 (Photorhabdus luminescens subsp. laumondii TTO1)
Assay: crystal structure

stoichiometry N: 2
Substance: Plu4264 from Photorhabdus luminescens subsp. laumondii TTO1 (natural protein)
